T1: EsCas13d, nuclease-dead (Eubacterium siraeum, UniProt B0MS50, R295A;H300A;R849A;H854A)
T1 sequence: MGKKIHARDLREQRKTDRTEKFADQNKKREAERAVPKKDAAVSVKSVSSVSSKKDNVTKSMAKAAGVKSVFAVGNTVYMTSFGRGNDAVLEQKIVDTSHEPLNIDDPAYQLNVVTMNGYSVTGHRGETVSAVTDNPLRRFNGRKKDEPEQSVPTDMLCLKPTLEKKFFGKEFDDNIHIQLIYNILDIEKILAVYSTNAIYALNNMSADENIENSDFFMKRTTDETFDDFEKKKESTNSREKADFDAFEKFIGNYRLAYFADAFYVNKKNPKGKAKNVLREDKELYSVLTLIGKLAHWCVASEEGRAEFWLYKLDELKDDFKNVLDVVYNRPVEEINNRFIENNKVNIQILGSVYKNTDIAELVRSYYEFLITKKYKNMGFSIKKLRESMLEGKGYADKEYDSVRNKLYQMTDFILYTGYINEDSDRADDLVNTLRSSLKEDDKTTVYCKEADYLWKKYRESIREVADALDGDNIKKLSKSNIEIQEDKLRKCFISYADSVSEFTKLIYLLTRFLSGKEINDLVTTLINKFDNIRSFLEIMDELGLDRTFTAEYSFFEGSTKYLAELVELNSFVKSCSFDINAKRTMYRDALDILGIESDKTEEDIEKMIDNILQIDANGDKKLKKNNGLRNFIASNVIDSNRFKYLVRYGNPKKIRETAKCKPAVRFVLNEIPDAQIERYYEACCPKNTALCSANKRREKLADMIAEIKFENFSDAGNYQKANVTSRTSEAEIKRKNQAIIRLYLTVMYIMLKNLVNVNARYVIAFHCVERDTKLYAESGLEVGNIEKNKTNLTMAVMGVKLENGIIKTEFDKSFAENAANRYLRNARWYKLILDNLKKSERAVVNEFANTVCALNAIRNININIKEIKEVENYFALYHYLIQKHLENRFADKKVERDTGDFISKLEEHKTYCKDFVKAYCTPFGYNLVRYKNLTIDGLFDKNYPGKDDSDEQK

B1: target 1 A14U,A16C (mixed)
RNA 1: CACCCGUGCAAAAAUGCAGGGGUCUAAAACUGAGCGGAUAACCUCUCUAUGG
RNA 2: GGGAAUGGAUCCACAUCUACGAAUUCGUACCAUAGCGUGGUUAUCCGCUCACCGAGAUCGGAAGAGCACACGU
B2: target 2 MT 5'PFS CUC 3'PFS UGA (mixed)
RNA 1: CACCCGUGCAAAAUUGCAGGGGUCUAAAACCUUCUCCAAAUUGUUUCAUCCU
RNA 2: GGGAAUGGAUCCACAUCUACGAAUUCCUCAGGAUGAAACAAUUUGGAGAAGUGAAGAUCGGAAGAGCACACGU
B3: target 2 MT 5'PFS AUA 3'PFS UUC (mixed)
RNA 1: CACCCGUGCAAAAUUGCAGGGGUCUAAAACCUUCUCCAAAUUGUUUCAUCCU
RNA 2: GGGAAUGGAUCCACAUCUACGAAUUCAUAAGGAUGAAACAAUUUGGAGAAGUUCAGAUCGGAAGAGCACACGU
B4: target 2 MT 5'PFS AUA 3'PFS UUA (mixed)
RNA 1: CACCCGUGCAAAAUUGCAGGGGUCUAAAACCUUCUCCAAAUUGUUUCAUCCU
RNA 2: GGGAAUGGAUCCACAUCUACGAAUUCAUAAGGAUGAAACAAUUUGGAGAAGUUAAGAUCGGAAGAGCACACGU
B5: target 2 MT 5'PFS CUC 3'PFS UGC (mixed)
RNA 1: CACCCGUGCAAAAUUGCAGGGGUCUAAAACCUUCUCCAAAUUGUUUCAUCCU
RNA 2: GGGAAUGGAUCCACAUCUACGAAUUCCUCAGGAUGAAACAAUUUGGAGAAGUGCAGAUCGGAAGAGCACACGU
B6: target 2 MT 5'PFS UGA 3'PFS AAC (mixed)
RNA 1: CACCCGUGCAAAAUUGCAGGGGUCUAAAACCUUCUCCAAAUUGUUUCAUCCU
RNA 2: GGGAAUGGAUCCACAUCUACGAAUUCUGAAGGAUGAAACAAUUUGGAGAAGAACAGAUCGGAAGAGCACACGU
B7: target 2 MT 5'PFS UCA 3'PFS UAC (mixed)
RNA 1: CACCCGUGCAAAAUUGCAGGGGUCUAAAACCUUCUCCAAAUUGUUUCAUCCU
RNA 2: GGGAAUGGAUCCACAUCUACGAAUUCUCAAGGAUGAAACAAUUUGGAGAAGUACAGAUCGGAAGAGCACACGU
B8: target 2 MT 5'PFS CAA 3'PFS CUC (mixed)
RNA 1: CACCCGUGCAAAAUUGCAGGGGUCUAAAACCUUCUCCAAAUUGUUUCAUCCU
RNA 2: GGGAAUGGAUCCACAUCUACGAAUUCCAAAGGAUGAAACAAUUUGGAGAAGCUCAGAUCGGAAGAGCACACGU
B9: target 2 MT 5'PFS UGA 3'PFS AAA (mixed)
RNA 1: CACCCGUGCAAAAUUGCAGGGGUCUAAAACCUUCUCCAAAUUGUUUCAUCCU
RNA 2: GGGAAUGGAUCCACAUCUACGAAUUCUGAAGGAUGAAACAAUUUGGAGAAGAAAAGAUCGGAAGAGCACACGU
B10: target 2 MT 5'PFS UCA 3'PFS UAU (mixed)
RNA 1: CACCCGUGCAAAAUUGCAGGGGUCUAAAACCUUCUCCAAAUUGUUUCAUCCU
RNA 2: GGGAAUGGAUCCACAUCUACGAAUUCUCAAGGAUGAAACAAUUUGGAGAAGUAUAGAUCGGAAGAGCACACGU
B11: target 2 MT 5'PFS CAA 3'PFS CUA (mixed)
RNA 1: CACCCGUGCAAAAUUGCAGGGGUCUAAAACCUUCUCCAAAUUGUUUCAUCCU
RNA 2: GGGAAUGGAUCCACAUCUACGAAUUCCAAAGGAUGAAACAAUUUGGAGAAGCUAAGAUCGGAAGAGCACACGU
B12: target 2 MT 5'PFS UGA 3'PFS AAU (mixed)
RNA 1: CACCCGUGCAAAAUUGCAGGGGUCUAAAACCUUCUCCAAAUUGUUUCAUCCU
RNA 2: GGGAAUGGAUCCACAUCUACGAAUUCUGAAGGAUGAAACAAUUUGGAGAAGAAUAGAUCGGAAGAGCACACGU
B13: target 2 MT 5'PFS UGA 3'PFS AAG (mixed)
RNA 1: CACCCGUGCAAAAUUGCAGGGGUCUAAAACCUUCUCCAAAUUGUUUCAUCCU
RNA 2: GGGAAUGGAUCCACAUCUACGAAUUCUGAAGGAUGAAACAAUUUGGAGAAGAAGAGAUCGGAAGAGCACACGU

For 13 molecules, Kd results are on record in article PMC10786891, “Massively parallel profiling of RNA-targeting CRISPR-Cas13d”.

The series deals with T1, EsCas13d, nuclease-dead. The experiment in a line: crRNA (strand 1, pre-loaded); Mg2+; 40 mM Tris-HCl pH 7.5, 150 mM NaCl, 6 mM MgCl2, 1 mM DTT, 0.1% Tween-20, 0.2 mg/ml BSA; 25 C; 10 min per concentration, then washed. The conditions noted are these: tags: His6-TwinStrep-SUMO cleaved; N-terminal SNAP kept (SNAP-Surface 488); label: 3' end held by stalled T7 RNA polymerase.
Turning to B1, binding was put at a Kd of 100 ± 40 nM. Then B2, with 1.66 ± 0.33 nM; and B3, with 13.4 ± 2.4 nM; and B4, with 10.7 ± 1.7 nM. On to B5, for which the Kd stood at 1.98 ± 0.26 nM. Under B6 stands 10.1 ± 2.4 nM; under B7, 5.7 ± 0.9 nM.

Regarding B8, the Kd is 5.3 ± 2.1 nM. Under B9 stands 9 ± 2.9 nM. Then B10, with 5.1 ± 0.7 nM; and B11, with about 5 nM. Take B12: binding was characterised by a dissociation constant (Kd) of 6.2 ± 0.8 nM. Regarding B13, the Kd was 7.4 ± 0.9 nM.

One may read the Kd as the equilibrium constant for the complex coming apart.
